pIC50: −log10 of the molar value.
Legend:
huIL-27 = target: T1, huIL-27 (Homo sapiens, UniProt Q14213+Q8NEV9); experiment: Phospho-STAT3 (BIO-PLEX) neutralization of IL-27 by soluble receptors, mouse spleens; format: cell-based; conditions: ligand huIL-27 at EC90 (2 nM)
T1 construct: purchased R&D Systems
T1 sequence (Q8NEV9 29-243): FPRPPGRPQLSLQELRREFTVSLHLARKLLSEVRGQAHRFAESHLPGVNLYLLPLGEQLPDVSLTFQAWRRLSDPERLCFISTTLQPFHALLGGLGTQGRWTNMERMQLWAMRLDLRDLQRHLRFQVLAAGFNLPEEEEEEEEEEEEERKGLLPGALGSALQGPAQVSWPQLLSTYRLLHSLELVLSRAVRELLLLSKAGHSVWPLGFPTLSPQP
T1 sequence (Q14213 21-229): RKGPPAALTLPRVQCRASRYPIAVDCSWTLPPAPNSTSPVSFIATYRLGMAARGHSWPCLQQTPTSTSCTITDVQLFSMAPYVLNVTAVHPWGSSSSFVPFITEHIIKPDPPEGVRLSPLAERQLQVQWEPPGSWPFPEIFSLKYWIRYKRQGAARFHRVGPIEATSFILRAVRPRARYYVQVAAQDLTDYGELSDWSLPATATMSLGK
Source text: (§1) Whole mouse spleens were harvested from C57 B1/6 mice and washed two times with 1×PBS before being plated out at 2×10^5 cells/well in assay media (RPMI 1640 plus 10% fetal bovine serum) in 96-well, round-bottom tissue culture plates. Total human PBMC (peripheral blood mononuclear cells) were thawed from a frozen vial collected from a leukapherisis donation and washed two times with 1×PBS before being plated out at 10^6 cells/well in assay media in 96-well, round-bottom tissue culture plates. […] Following pre-incubation, treatments were added to the plates containing the cells and incubated together at 37° C. for 15 minutes.
(§2) Following incubation, cells were washed with ice-cold wash buffer (BIO-PLEX Cell Lysis Kit, BIO-RAD Laboratories, Hercules, Calif.) and put on ice to stop the reaction according to manufacturer's instructions. […]
(§3) Capture beads (BIO-PLEX Phospho-Stat3 Assay, BIO-RAD Laboratories) were combined with 50 μL of 1:1 diluted lysates and added to a 96-well filter plate according to manufacture's instructions (BIO-PLEX Phosphoprotein Detection Kit, BIO-RAD Laboratories). […] After the final wash, beads were resuspended in 125 μL/well of bead suspension buffer, shaken for 30 seconds, and read on an array reader (BIO-PLEX, BIO-RAD Laboratories) according to the manufacture's instructions. Data were analyzed using analytical software (BIO-PLEX MANAGER 3.0, BIO-RAD Laboratories). […]

muIL-27 = target: T2, muIL-27 (Mus musculus, UniProt O35228+Q8K3I6); experiment: as above; format: cell-based; conditions: ligand muIL-27 at EC90 (0.2 nM)
T2 construct: purchased R&D Systems
T2 sequence (Q8K3I6 29-234): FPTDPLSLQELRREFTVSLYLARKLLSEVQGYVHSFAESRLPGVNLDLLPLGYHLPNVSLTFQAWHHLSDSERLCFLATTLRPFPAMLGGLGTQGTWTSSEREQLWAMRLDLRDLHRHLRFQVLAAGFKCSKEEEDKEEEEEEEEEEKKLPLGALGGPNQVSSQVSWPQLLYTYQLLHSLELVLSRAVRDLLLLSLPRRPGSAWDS
T2 sequence (O35228 19-228): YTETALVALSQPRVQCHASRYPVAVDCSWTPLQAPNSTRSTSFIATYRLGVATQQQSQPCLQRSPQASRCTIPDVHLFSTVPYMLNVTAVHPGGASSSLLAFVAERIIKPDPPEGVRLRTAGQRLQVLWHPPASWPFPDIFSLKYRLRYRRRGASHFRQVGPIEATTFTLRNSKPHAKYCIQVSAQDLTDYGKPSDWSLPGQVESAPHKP
Source text: as §1, §2, §3

pIC50 (huIL-27): 9.49
pIC50 (muIL-27): 9.85
Substance: human IL-27RA-Fc5: Extracellular domain of human IL27RA (amino acids 1 to 512 of SEQ ID NO:3) fused to Fc5, effector minus human gamma1 Fc; SEQ ID NO:16

Source: patent US20100093076A1, “SOLUBLE IL-27 RECEPTOR” (priority 2006, published 2010)
